From FireProtDB (doi:10.1016/0003-9861(92)90047-z)

B1: Tryptophan synthase alpha chain, P0A877 (parent)
chain: MERYESLFAQLKERKEGAFVPFVTLGDPGIEQSLKIIDTLIEAGADALELGIPFSDPLADGPTIQNATLRAFAAGVTPAQCFEMLALIRQKHPTIPIGLLMYANLVFNKGIDEFYAQCEKVGVDSVLVADVPVEESAPFRQAALRHNVAPIFICPPNADDDLLRQIASYGRGYTYLLSRAGVTGAENRAALPLNHLVAKLKEYNAAPPLQGFGISAPDQVKAAIDAGAAGAISGSAIVKIIEQHINEPEKMLAALKVFVQPMKAATRS

Variants of: B1
Conditions: Escherichia coli (strain K12); pH 7.2; Thermal; DSC; Sodium phosphate 1 mM; reversible: yes; structure 1WQ5; whole UniProt chain shown

Variant	Tm [°C]	change of melting temperature, mutant - wild type (higher = more stable) [°C]
F22S	60.3	0.8
P28L	54.9	-4.6
Q65R	58.9	-0.6
M101V	67.1	7.6
M101T	67.1	7.6
M101I	63.2	3.7
E49G	57.7	-1.8
T63K	56.2	-3.3
F114L	56.2	-3.3
D60G	56.9	-2.6
P53H	56.2	-3.3
P53T	55.2	-4.3
D56G	57.5	-2
A67V	56.8	-2.7
S33L	51.9	-7.6
Y102H	60.3	0.8
Y102C	60.9	1.4
D112N	56.4	-3.1
D112G	54.4	-5.1
S6P	54.3	-5.2
T24M	61.8	2.3
P62Q	58.9	-0.6
P78S	57.9	-1.6
P78L	61.4	1.9
G51D	55	-4.5
P21S	55.2	-4.3
Y115C	57.2	-2.3
